Source: the supplement of paper PMC11246515
± gives the standard deviation of the averaged measurements.

Assay: total protein half-life in vivo (active degradation + dilution); higher = more stable protein
[1] = E. coli NCM3722 delta-clpP delta-lon delta-hslV, growth: N-lim chemostat, doubling time 6 h
[2] = E. coli NCM3722 delta-clpP, growth: N-lim chemostat, doubling time 6 h
[3] = E. coli NCM3722 delta-hslV, growth: N-lim chemostat, doubling time 6 h
[4] = E. coli NCM3722 delta-lon, growth: N-lim chemostat, doubling time 6 h
[5] = E. coli NCM3722 delta-smpB, growth: N-lim chemostat, doubling time 6 h
[6] = wild type E. coli NCM3722, growth: N-lim chemostat, doubling time 12 h
[7] = wild type E. coli NCM3722, growth: N-lim chemostat, doubling time 6 h
[8] = wild type E. coli NCM3722, growth: P-lim chemostat, doubling time 12 h
[9] = wild type E. coli NCM3722, growth: C-lim chemostat, doubling time 3 h
[10] = wild type E. coli NCM3722, growth: C-lim chemostat, doubling time 6 h
[11] = wild type E. coli NCM3722, growth: C-lim chemostat, doubling time 12 h
[12] = wild type E. coli NCM3722, growth: P-lim chemostat, doubling time 6 h

For “MTTLTARPEAITFDPQQSALIVVDMQNAYATPGGYLDLAGFDVSTTRPVIANIQTAVTAARAAGMLIIWFQNGWDEQYVEAGGPGSPNFHKSNALKTMRKQPQLQGKLLAKGSWDYQLVDELVPQPGDIVLPKPRYSGFFNTPLDSILRSRGIRHLVFTGIATNVCVESTLRDGFFLEYFGVVLEDATHQAGPKFAQKAALFNIETFFGWVSDVETFCDALSPTSFAHIA”, the “total protein half-life in vivo” value [1] was 4.33 ± 0.13 h, the “total protein half-life in vivo” value [2] was 1.41 ± 0.23 h and the “total protein half-life in vivo” value [3] was 0.334 h. The “total protein half-life in vivo” value [4] was 0.503 ± 0.025 h, the “total protein half-life in vivo” value [5] was 0.441 h and the “total protein half-life in vivo” value [6] was 0.812 h.
In the case of “MTTLTLVLTAVGSVLLLLFLVMKARMHAFLALMVVSMGAGLFSGMPLDKIAATMEKGMGGTLGFLAVVVALGAMFGKILHETGAVDQIAVKMLKSFGHSRAHYAIGLAGLVCALPLFFEVAIVLLISVAFSMARHTGTNLVKLVIPLFAGVAAAAAFLVPGPAPMLLASQMNADFGWMILIGLCAAIPGMIIAGPLWGNFISRYVELHIPDDISEPHLGEGKMPSFGFSLSLILLPLVLVGLKTIAARFVPEGSTAYEWFEFIGHPFTAILVACLVAIYGLAMRQGMPKDKVMEICGHALQPAGIILLVIGAGGVFKQVLVDSGVGPALGEALTGMGLPIAITCFVLAAAVRIIQGSATVACLTAVGLVMPVIEQLNYSGAQMAALSICIAGGSIVVSHVNDAGFWLFGKFTGATEAETLKTWTMMETILGTVGAIVGMIAFQLLS [P0AC96]”, the “total protein half-life in vivo” value [2] is reported as 6.49 h, the “total protein half-life in vivo” value [3] is reported as 5.93 h and the “total protein half-life in vivo” value [7] is reported as 5.18 h. For the same sequence, the “total protein half-life in vivo” value [8] was 12.9 h.
For “MTTMLEVAKRAGVSKATVSRVLSGNGYVSQETKDRVFQAVEESGYRPNLLARNLSAKSTQTLGLVVTNTLYHGIYFSELLFHAARMAEEKGRQLLLADGKHSAEEERQAIQYLLDLRCDAIMIYPRFLSVDEIDDIIDAHSQPIMVLNRRLRKNSSHSVWCDHKQTSFNAVAELINAGHQEIAFLTGSMDSPTSIERLAGYKDALAQHGIALNEKLIANGKWTPASGAEGVEMLLERGAKFSALVASNDDMAIGAMKALHERGVAVPEQVSVIGFDDIAIAPYTVPALSSVKIPVTEMIQEIIGRLIFMLDGGDFSPPKTFSGKLIRRDSLIAPSR”, the “total protein half-life in vivo” value [2] was 4.95 h, the “total protein half-life in vivo” value [3] was 3.46 ± 0.2 h and the “total protein half-life in vivo” value [4] was 4.26 ± 0.14 h. For the same sequence, the “total protein half-life in vivo” value [5] was 3.44 ± 0.13 h, the “total protein half-life in vivo” value [9] was 3 ± 0.72 h and the “total protein half-life in vivo” value [10] was 4.91 ± 0.77 h. The “total protein half-life in vivo” value [11] was 8.06 ± 0.59 h, the “total protein half-life in vivo” value [7] was 3.59 h and the “total protein half-life in vivo” value [6] was 5.73 ± 0.34 h. For the same sequence, the “total protein half-life in vivo” value [12] was 2.66 ± 0.17 h and the “total protein half-life in vivo” value [8] was 7.06 ± 0.59 h.
In the case of “MTTPTFDTIEAQASYGIGLQVGQQLSESGLEGLLPEALVAGIADALEGKHPAVPVDVVHRALREIHERADAVRRQRFQAMAAEGVKYLEENAKKEGVNSTESGLQFRVINQGEGAIPARTDRVRVHYTGKLIDGTVFDSSVARGEPAEFPVNGVIPGWIEALTLMPVGSKWELTIPQELAYGERGAGASIPPFSTLVFEVELLEIL [P0A9L3]”, the “total protein half-life in vivo” value [1] is reported as 4.93 ± 0.29 h, the “total protein half-life in vivo” value [2] is reported as 4.54 ± 0.58 h and the “total protein half-life in vivo” value [3] is reported as 3.72 ± 0.16 h. The “total protein half-life in vivo” value [4] was 5 ± 0.44 h, the “total protein half-life in vivo” value [5] was 3.45 ± 0.19 h and the “total protein half-life in vivo” value [9] was 3.06 ± 0.2 h. For the same sequence, the “total protein half-life in vivo” value [10] was 5.67 ± 0.37 h, the “total protein half-life in vivo” value [11] was 10.4 ± 0.65 h and the “total protein half-life in vivo” value [7] was 3.59 ± 0.1 h. For the same sequence, the “total protein half-life in vivo” value [6] was 5.3 ± 0.15 h, the “total protein half-life in vivo” value [12] was 5.591 ± 0.04 h and the “total protein half-life in vivo” value [8] was 11 ± 0.86 h.
